B1: PA1T4StdG (structured_DNA)
DNA: CGTGTGGACCATGGGGTGAGTGGGTAGGTGTCCTGAGGAGGT
B2: PA1T4StdA (structured_DNA)
DNA: CGTGTGGACCATGGAGTGAGTGAGTAGGTGTCCTGAGGAGGT
B3: PA1StdG (structured_DNA)
DNA: AGAGAGCGTCGTGTGGACCATGGGGTGAGTGGGTAGGTGTCCTGAGGAGGTGCGCAAGT
B4: PA1StdA (structured_DNA)
DNA: AGAGAGCGTCGTGTGGACCATGGAGTGAGTGAGTAGGTGTCCTGAGGAGGTGCGCAAGT

Chain of PA63 (cleaved protective antigen) (P13423 197-764): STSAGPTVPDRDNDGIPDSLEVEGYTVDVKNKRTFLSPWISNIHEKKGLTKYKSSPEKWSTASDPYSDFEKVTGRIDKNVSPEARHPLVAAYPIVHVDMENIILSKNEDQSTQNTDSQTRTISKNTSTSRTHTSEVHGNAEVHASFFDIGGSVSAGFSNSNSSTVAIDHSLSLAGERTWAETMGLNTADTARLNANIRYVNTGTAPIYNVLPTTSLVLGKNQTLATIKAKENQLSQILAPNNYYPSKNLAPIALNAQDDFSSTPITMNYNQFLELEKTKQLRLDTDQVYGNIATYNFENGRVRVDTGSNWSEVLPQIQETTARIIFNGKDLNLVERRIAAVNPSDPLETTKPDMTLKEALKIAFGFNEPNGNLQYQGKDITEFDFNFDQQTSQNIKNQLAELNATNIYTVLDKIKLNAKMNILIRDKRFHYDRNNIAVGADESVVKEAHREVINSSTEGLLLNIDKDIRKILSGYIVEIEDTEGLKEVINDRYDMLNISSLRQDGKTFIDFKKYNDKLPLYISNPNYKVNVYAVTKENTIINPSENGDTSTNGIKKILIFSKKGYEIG

This data set addresses PA63 (cleaved protective antigen) (Bacillus anthracis, UniProt P13423 197-764). The experiment in a line: filter binding.
In the case of B1, the binding result was “no binding”.

As to B2, the binding result is recorded as “no binding”. The same measure for B3: “no binding”; for B4: “no binding”.

The record behind these values is publication PMC5175368.
